Measured values published in US7413866B2, “Compositions and methods for detecting and treating diseases and conditions related to chemokine receptors” (ChemoCentryx, Inc., priority 2001, dated 2008).

B1: mMIP-1γ: CCR1 ligand (protein)
chain: QITHATETKEVQSSLKAQQGLEIEMFHMGFQDSSDCCLSYNSRIQCSRFIGYFPTSGGCTRPGIIFISKRGFQVCANPSDRRVQRCIERLEQNSQPRTYKQ
B2: CKβ8 (1-99) (ligand)
chain: RVTKDAETEFMMSKLPLENPVLLDRFHATSADCCISYTPRSIPCSLLESYFETNSECSKPGVIFLTKKGRRFCANPSDKQVQVCMRMLKLDTRIKTRKN
notes: The numbers 1-99 count on the mature chemokine, not on the precursor; also called CCL23 (99-amino acid form)
B3: MIP-1α (ligand)
chain: ADTPTACCFSYTSRQIPQNFIADYFETSSQCSKPGVIFLTKRSRQVCADPSEEWVQKYVSDLELSA
modifications: also: 125I label where used as radioligand
B4: MIP-1α: CC chemokine, CCR1 ligand (protein)
chain: ADTPTACCFSYTSRQIPQNFIADYFETSSQCSKPGVIFLTKRSRQVCADPSEEWVQKYVSDLELSA
B5: Leukotactin (ligand)
chain: SFHFAADCCTSYISQSIPCSLMKSYFETSSECSKPGVIFLTKKGRQVCAKPSGPGVQDCMKKLKPYSI
B6: mI-TAC: murine recombinant chemokine I-TAC (protein)
chain: FLMFKQGRCLCIGPGMKAVKMAEIEKASVIYPSNGCDKVEVIVTMKAHKRQRCLDPRSKQARLIMQAIEKKNFLRRQNM

Experiments:
CCR1 [1] = biological target: T1, CCR1 (Homo sapiens, UniProt P32246); assay: Intracellular Ca2+ mobilization via CCR1; assay type: cell-based; set-up: endogenous in cells; host or cells: THP-1, monocytes, neutrophils, immature DC (endogenous); also HEK293-CCR1 and NSO-CCR1 transfectants
T1 sequence (P32246 1-355): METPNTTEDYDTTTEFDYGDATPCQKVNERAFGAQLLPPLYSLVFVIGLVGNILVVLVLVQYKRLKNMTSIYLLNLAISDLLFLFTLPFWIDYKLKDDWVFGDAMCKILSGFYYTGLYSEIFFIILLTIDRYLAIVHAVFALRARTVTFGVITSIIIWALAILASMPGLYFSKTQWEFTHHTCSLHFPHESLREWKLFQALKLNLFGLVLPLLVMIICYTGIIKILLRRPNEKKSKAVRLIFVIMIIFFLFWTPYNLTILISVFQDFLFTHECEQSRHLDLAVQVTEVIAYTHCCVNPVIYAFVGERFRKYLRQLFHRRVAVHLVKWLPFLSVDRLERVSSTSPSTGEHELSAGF

CCR1 [2] = biological target: T1, CCR1; assay: CCR1 mediated cell migration; assay type: cell-based
[3] = biological target: T2, CCR1 expressed on NSO transfectants (human, UniProt P32246 1-355); assay: competition against ^125I MIP-1α on NSO-CCR1 cells
T2 construct: CCR1 transfectant of NSO cells; also called NSO-CCR1
T2 sequence: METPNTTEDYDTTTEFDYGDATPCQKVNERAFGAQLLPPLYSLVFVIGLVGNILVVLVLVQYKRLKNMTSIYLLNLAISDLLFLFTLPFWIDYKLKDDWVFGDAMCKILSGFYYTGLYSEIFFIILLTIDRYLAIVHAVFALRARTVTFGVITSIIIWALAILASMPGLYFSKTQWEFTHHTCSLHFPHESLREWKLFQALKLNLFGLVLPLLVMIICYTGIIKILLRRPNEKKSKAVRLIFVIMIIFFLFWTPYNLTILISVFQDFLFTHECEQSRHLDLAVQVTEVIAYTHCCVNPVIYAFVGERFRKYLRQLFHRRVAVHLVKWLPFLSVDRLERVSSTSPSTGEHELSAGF

[4] = biological target: T3, CCR1 expressed on HEK293 transfectants (human, UniProt P32246 1-355); assay: competition against ^125I MIP-1α on HEK293-CCR1 cells
T3 construct: CCR1 cDNA transfected into HEK293 cells; also called HEK293-CCR1
T3 sequence: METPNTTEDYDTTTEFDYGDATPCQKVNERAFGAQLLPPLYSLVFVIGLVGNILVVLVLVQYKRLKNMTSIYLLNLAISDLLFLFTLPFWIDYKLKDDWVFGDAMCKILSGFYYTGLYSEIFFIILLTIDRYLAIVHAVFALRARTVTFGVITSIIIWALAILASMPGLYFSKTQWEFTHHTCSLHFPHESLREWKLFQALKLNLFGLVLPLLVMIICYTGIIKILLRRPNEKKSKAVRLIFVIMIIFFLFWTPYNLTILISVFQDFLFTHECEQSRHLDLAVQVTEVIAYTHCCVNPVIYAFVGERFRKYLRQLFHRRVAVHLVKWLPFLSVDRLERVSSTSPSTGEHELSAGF

CCR1 on monocytes = biological target: T4, CCR1 on monocytes (UniProt P32246 1-355); assay: 125I MIP-1α competition binding on cells; monocytes
T4 chain: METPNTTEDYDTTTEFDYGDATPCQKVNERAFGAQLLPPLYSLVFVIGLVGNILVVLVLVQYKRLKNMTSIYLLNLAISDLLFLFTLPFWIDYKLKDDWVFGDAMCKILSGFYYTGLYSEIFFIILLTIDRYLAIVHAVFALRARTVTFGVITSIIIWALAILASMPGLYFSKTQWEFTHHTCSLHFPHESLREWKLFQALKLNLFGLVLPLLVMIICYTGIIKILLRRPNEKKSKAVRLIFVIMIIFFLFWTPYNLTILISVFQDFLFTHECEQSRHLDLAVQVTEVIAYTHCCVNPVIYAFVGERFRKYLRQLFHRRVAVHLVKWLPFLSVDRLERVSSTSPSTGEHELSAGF

[5] = biological target: T5, CCR1 on THP-1 cells (acute monocytic leukemia) (UniProt P32246 1-355); assay: 125I MIP-1α competition binding on cells; THP-1 cells
T5 chain: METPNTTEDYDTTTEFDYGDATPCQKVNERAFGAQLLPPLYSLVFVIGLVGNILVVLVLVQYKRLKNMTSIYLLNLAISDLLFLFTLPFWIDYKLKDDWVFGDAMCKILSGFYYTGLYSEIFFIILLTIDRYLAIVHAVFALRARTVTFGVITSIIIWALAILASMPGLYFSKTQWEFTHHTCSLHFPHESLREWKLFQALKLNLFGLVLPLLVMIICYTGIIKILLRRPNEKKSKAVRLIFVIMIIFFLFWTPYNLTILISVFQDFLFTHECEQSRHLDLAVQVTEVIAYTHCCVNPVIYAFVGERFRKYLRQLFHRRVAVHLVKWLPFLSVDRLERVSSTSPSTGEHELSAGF

[6] = biological target: T6, CCR1 expressed on NSO transfectants (UniProt P32246 1-355); assay: 125I MIP-1α competition binding on cells; NSO-CCR1 cells
T6 chain: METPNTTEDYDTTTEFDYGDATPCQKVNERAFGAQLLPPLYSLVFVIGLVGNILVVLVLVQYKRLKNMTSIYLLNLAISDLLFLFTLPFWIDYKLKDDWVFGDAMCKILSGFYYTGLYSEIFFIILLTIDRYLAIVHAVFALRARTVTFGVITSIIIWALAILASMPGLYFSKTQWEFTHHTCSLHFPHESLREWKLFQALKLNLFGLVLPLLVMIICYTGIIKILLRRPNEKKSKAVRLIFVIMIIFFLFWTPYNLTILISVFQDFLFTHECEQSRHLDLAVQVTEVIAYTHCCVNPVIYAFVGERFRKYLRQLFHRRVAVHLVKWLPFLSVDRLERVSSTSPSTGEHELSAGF

[7] = biological target: T7, CCR1 expressed on HEK293 transfectants (UniProt P32246 1-355); assay: 125I MIP-1α competition binding on cells; HEK293-CCR1 cells
T7 chain: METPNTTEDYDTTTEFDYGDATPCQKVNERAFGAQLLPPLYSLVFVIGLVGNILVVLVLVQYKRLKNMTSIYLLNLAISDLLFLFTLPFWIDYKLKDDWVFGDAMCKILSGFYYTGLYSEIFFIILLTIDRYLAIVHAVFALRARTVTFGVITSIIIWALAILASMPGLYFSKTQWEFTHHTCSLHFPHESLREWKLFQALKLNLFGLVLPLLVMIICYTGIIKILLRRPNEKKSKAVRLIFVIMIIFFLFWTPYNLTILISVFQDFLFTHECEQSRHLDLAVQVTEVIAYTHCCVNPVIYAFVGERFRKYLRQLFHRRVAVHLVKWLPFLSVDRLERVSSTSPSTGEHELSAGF

[8] = biological target: T8, CXCR4 on MCF-7 cells (Homo sapiens); assay: 125I SDF-1α competition binding on MCF-7 cells; conditions: cold competitor array
T8 construct: host or cells: MCF-7 (whole cells)
T8 sequence (P25106 whole entry): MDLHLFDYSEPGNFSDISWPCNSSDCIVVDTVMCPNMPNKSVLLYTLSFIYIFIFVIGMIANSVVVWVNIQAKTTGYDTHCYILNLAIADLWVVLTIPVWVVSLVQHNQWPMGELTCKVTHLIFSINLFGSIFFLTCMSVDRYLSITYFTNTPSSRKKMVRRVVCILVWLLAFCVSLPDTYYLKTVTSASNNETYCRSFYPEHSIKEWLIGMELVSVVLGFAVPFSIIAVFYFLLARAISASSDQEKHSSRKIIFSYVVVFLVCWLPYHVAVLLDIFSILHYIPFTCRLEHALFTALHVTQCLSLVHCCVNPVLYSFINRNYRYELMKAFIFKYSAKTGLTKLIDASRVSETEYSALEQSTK
Excerpt: Binding Analysis. We employed our technique, DisplaceMax, to examine the global profile of chemokine ligand interaction with CXCR4 on MCF-7 and CEM-NKr cells. This technology employs expanded, efficiency-maximized radioligand binding using filtration protocols as described previously (Kledal T N, et al. Science 277:1656-1659 (1997); Dairaghi, et al. J Biol Chem 274:21569-74 (1999); Gosling, J. et al. J Immunol 164:2851-6 (2000)). […] Where indicated, anti-CXCR4 antibodies or isotype controls were included in the binding reactions. In these experiments cells were pre-incubated with the indicated concentration of antibody for 30 min at 4° C. prior to the addition of radiolabeled chemokine. Small molecules were included in some assays, where indicated. In these assays the compound was added to the plate to the indicated concentration followed by the addition of radiolabeled chemokine. All assays were then incubated for 3 hrs at 4° C. with gentle agitation. Following incubation in all binding assays, reactions were aspirated onto PEI-treated GF/B glass filters (Packard) using a cell harvester (Packard) and washed twice (25 mM HEPES, 500 mM NaCl, 1 mM CaCl2, 5 mM MgCl2, adjusted to pH 7.1). Scintillant (MicroScint 10, Packard) was added to the wells, and the filters were counted in a Packard Topcount scintillation counter. Data were analyzed and plotted using Prism (GraphPad Prism version 3.0a for Macintosh, GraphPad Software).

Molecule	Ca2+ mobilization in HEK293-CCR1, THP-1 and monocytes (CCR1 [1])	Ca2+ mobilization in neutrophils (CCR1 [1])	IC50 (CCR1 on monocytes)	IC50 [5]	IC50 [6]	IC50 [7]	other results
B1	able to mobilize Ca2+	do not mobilize Ca2+	–	–	–	–	–
B2	able to mobilize Ca2+	do not mobilize Ca2+	10.3 nM	6.3 nM	–	–	induction of cell migration, neutrophils (CCR1 [2]; CCR1 expressed on neutrophils): does not induce cell migration; induction of CCR1 mediated cell migration, THP-1 cells, monocytes and immature DC (CCR1 [2]; THP-1 cells, monocytes and immature DC): can induce CCR1 mediated cell migration; IC50 [3]: 3.9 nM; IC50 [4]: 64 nM
B3	–	–	0.27 nM	0.17 nM	0.15 nM	0.54 nM	–
B4	able to mobilize Ca2+	do not mobilize Ca2+	–	–	–	–	–
B5	able to mobilize Ca2+	do not mobilize Ca2+	< 0.2 nM	< 0.2 nM	0.02 nM	< 0.2 nM	–
B6	–	–	–	–	–	–	DisplaceMax displacement of 125I SDF-1α on MCF-7, affinity class [8]: high affinity
